B1: YFPN‐AQP0 of the recloned pair YFPN‐AQP0 + YFPC‐CaM* (hexa‐histidine tag moved away from the AQP0 moiety) (natural protein, human, UniProt P30301 1-263, looked up)
chain: MWELRSASFWRAIFAEFFATLFYVFFGLGSSLRWAPGPLHVLQVAMAFGLALATLVQSVGHISGAHVNPAVTFAFLVGSQMSLLRAFCYMAAQLLGAVAGAAVLYSVTPPAVRGNLALNTLHPAVSVGQATTVEIFLTLQFVLCIFATYDERRNGQLGSVALAVGFSLALGHLFGMYYTGAGMNPARSFAPAILTGNFTNHWVYWVGPIIGGGLGSLLYDFLLFPRLKSISERLSVLKGAKPDVSNGQPEVTGEPVELNTQAL
notes: aquaporin 0 (AQP0), human; gene codon optimized for yeast (Genscript); As m1 but without the His tag; The purified complex is read by its size (about 500 kDa) as an octameric form of the aquaporin; also called hAQP0; source: S. cerevisiae, co-expressed with YFPC-CaM*, purified as a complex (DDM-solubilised membranes, Ni-NTA, SEC); not shown: YFPN (SYFP2 amino acids 1 to 154, linker KQKVMNH), …
B2: isolated AQP0 (expressed and purified separately) (natural protein, human, UniProt P30301 1-263, looked up)
chain: B1 chain
notes: also called pure protein AQP0; source: expressed and purified separately

Legend:
[1] = target: the molecule itself; assay: pull-down + SEC; YFPN-AQP0 + YFPC-CaM* co-expressed in S. cerevisiae; membranes solubilised in DDM; HisTrap HP (Ni-NTA) by the His tag on YFPC-CaM*, eluted with 250 mM imidazole; then FSEC on Superose6 Increase (20 mM Tris-HCl pH 7.5, 100 mM NaCl, 5 mM CaCl2, 1% β-OG); fluorescent peak at 15 mL on SDS-PAGE (Coomassie), immunoblot with anti-AQP0 and anti-CaM
[2] = target: the molecule itself; assay: SEC; isolated AQP0 alone on SEC

Protein	stoichiometry N [1]	stoichiometry N [2]
B1	8	–
B2	–	4

Source: paper PMC5119558, “Applying bimolecular fluorescence complementation to screen and purify aquaporin protein:protein complexes” (Protein Science : A Publication of the Protein Society, 2016)
